Our source for the percent of FH binding to surface C3b left and percent of FH binding to surface C3b with kidney HS left values is article PMC8313009.

For assay [1], the target named is Complement C3b (human) (UniProt P01024). In words: ELISA; competition; heparin-binding plates coated with 25 ug/ml human C3b alone; FH fixed at 16 nM with rFHR-5 at 7-221 nM (dimer), 2 h room temperature, 5% BSA, 100 mM NaCl, 50 mM NaOAc, pH 7.3; bound FH detected with monoclonal anti-FH; FH binding without rFHR-5 = 100%.
For assay [2] the target is unchanged. Put plainly: ELISA; competition; heparin-binding plates coated with 25 ug/ml human C3b together with 40 ug/ml kidney heparan sulfate; FH fixed at 16 nM with rFHR-5 at 7-221 nM (dimer), 2 h room temperature, 5% BSA, 100 mM NaCl, 50 mM NaOAc, pH 7.3; bound FH detected with monoclonal anti-FH; FH binding without rFHR-5 = 100%. For orientation: In an ELISA, binding on a coated surface is turned into a signal by an enzyme label.

B1: Recombinant complement factor H-related protein 5 (natural protein)
chain: EGTLCDFPKIHHGFLYDEEDYNPFSQVPTGEVFYYSCEYNFVSPSKSFWTRITCTEEGWSPTPKCLRMCSFPFVKNGHSESSGLIHLEGDTVQIICNTGYSLQNNEKNISCVERGWSTPPICSFTKGECHVPILEANVDAQPKKESYKVGDVLKFSCRKNLIRVGSDSVQCYQFGWSPNFPTCKGQVRSCGPPPQLSNGEVKEIRKEEYGHNEVVEYDCNPNFIINGPKKIQCVDGEWTTLPTCVEQVKTCGYIPELEYGYVQPSVPPYQHGVSVEVNCRNEYAMIGNNMITCINGIWTELPMCVATHQLKRCKIAGVNIKTLLKLSGKEFNHNSRIRYRCSDIFRYRHSVCINGKWNPEVDCTEKREQFCPPPPQIPNAQNMTTTVNYQDGEKVAVLCKENYLLPEAKEIVCKDGRWQSLPRCVESTAYCGPPPSINNGDTTSFPLSVYPPGSTVTYRCQSFYKLQGSVTVTCRNKQWSEPPRCLDPCVVSEENMNKNNIQLKWRNDGKLYAKTGDAVEFQCKFPHKAMISSPPFRAICQEGKFEYPICE
Take B1: the percent of FH binding to surface C3b left at a 1:1 molar ratio of rFHR-5 and FH with Complement C3b (human) [1] amounted to 80%. Also, the percent of FH binding to surface C3b with kidney HS left at a 1:1 molar ratio of rFHR-5 and FH in the assay with Complement C3b (human) [2] turned out to be 50%.
